# Results published in patent publication US7745192.
# Molecular target: human fibrinogen (UniProt P02671)
substance,measurement,value
thrombin resulting from action of Brown snake venom protease,SDS PAGE banding patterns of washed fibrin clots,thrombin resulting from action of Brown snake venom protease converts fibrinogen to fibrin in a similar manner as normal α-thrombin
